# Measurements published in PMC12013513 (2025).
# B1: GST-ANI-1^C-term (681-1159 AA) [C. elegans] / 10xHis-RHO-1^WT (wild type RHO-1, 1-188 AA) [C. elegans] (parent complex)
# chain 1: DDDATTQFPVPERSRKSSSQLAYSVSFYRKIQRDRNEESSTVLAGPVISQISPSAPPMSSSLTSQQKLRQLTTGPANGARIVESAKDAHDRIKRAIQVEEQLVAQSKRAMILARDKPSFRGSREEFEAQWAMLRHVEKHRALLTEYDRLKRDGPRIIDGPRGTITVSQLSVNMARDYVSANIASSKKSDEVFYFAAILRYGEQVDVSKMVTSDGGLNRRGVLEFPVPLMLTGIPPDFRATVEIYGQRSMRESTSHEDKYKLKNSTFKAKTRNTFLGGGSTSSANQSLFVDPAASSSSTSSTTSNFNLLGTFSFDINCPGKHLYNMSHTVYPLEGITQMKVRKQAIDGADITYHGFLSMYQRTGEGLGSWTRYWCALENGEMKFWKQPEDEGTKGYTALMDLSTCCRSEGASVVEDICPFPNSFHIDVWAPKMDTSDPRGIERLRVMLAADTAQDLQTWLSLINSTSKQLCTWRNPIVNQ
# chain 2: not shown
# Variants of: B1
# Experiment: pull-down; parent: 14; read off a plot
row,Variant,response
1,"chain 1 A109D, chain 1 E127K",~17 % of Bound RHO-1
